The record followed here is paper PMC4157418.

The test addresses Acinetobacter baumannii alanine racemase (Acinetobacter baumannii strain NCTC13302) (UniProt B0VNF6). Description: crystal structure; sitting drops, 100 mM MES pH 6.0, 200 mM CaCl2, 20% PEG 6000; space group P2(1), two monomers in the asymmetric unit; 1.9 Å; interface analysed with PISA.

Consider “Acinetobacter baumannii alanine racemase (from UniProt B0VNF6 1-367) (enzyme)”, for which the stoichiometry N (usually the number of molecules, sites or subunits per partner or assembly) came to 2.
